Measured values taken from US20200291133A1 (VACARA, published 2020).

T1: CEP1 (X at 6 and 12 = citrulline; biotin-conjugated for SPR and Luminex)
T1 construct: CKIHAXEIFDSXGNPTVECK; derived from alpha-enolase; also called CEPI; citrullinated alpha-enolase peptide
T1 peptide: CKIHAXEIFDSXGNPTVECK


Legend:
CEP1 [1] = target: T1, CEP1; experiment: SPR (Biacore 2000), biotinylated CEP1 on a streptavidin chip, Fab as analyte up to about 3400 nM; plot of RU against concentration; REP1 channel as reference per the legend
Experimental: (§1) SPR sensorgrams of chimeric E4NG Fab fragment (A), E4 (B), F3(C), D10 (D), and B2 (E) binding to immobilized CEP1. Response Units (R.U.) reflect the value of subtracting […]. A series of analyte concentrations were tested. The binding of E4NG (F) and F3 (G) to citrullinated Histone2A peptide were analyzed in a similar way as shown in (A)-(E).
(§2) Surface plasmon resonance analysis. Binding of peptides to the given antibody was analyzed by SPR using a Biacore 2000 biosensor at 25° C. Briefly, the biotin-conjugated peptide was coupled to an […] by streptavidin binding. Then the Fab fragment or full-length antibody was diluted in PBS-P running buffer (20 mM phosphate buffer, 2.7 mM KCl, 137 mM NaCl and 0.05% Surfactant P20) and injected at in a series of concentrations. Data processing and analysis were performed using Biacore 2000 evaluation software.

CEP1 [2] = target: T1, CEP1; experiment: SPR (Biacore 2000), biotinylated CEP1 on a streptavidin chip, full antibody as analyte up to 200 nM; plot of RU against concentration; REP1 channel as reference per the legend; the legend says only E4, paragraph 117 ties the CEP1 Kd to E4NG
Experimental: as §1, §2

CEP1 [3] = target: T1, CEP1; experiment: SPR, CEP1 immobilised
Experimental: as §2

| Kd (CEP1 [1]) | Kd (CEP1 [2]) | Kd (CEP1 [3]) | Binder |
| --- | --- | --- | --- |
| 2300 nM |  |  | chimeric E4NG Fab fragment (murine IgG2b constant region) (Fab, domain: constant region; Fab made with the ImmunoPure Fab Preparation Kit (papain); also called E4Fab; mE4Fab; not shown: part of the mouse IgG2b constant region (UniProtKB P01867) left in the Fab after cleavage) heavy: QVQLEESGPGLVRPSETLSLSCTVSGFPMSESYFWGWIRQSPGKGLEWLGSVIHTGTTYYRPSLESRLTIAMDPSKNQVSLSLTSVTVADSAMYYCVRIRGGSSNWLDPWGPGIVVTASS light: QSVWTQPPSVSAAPGQKVTISCSGDDSILRSAFVSWYQQVPGSAPKLVIFDDRQRPSGIPARFSGSNSGTTATLDIAGLQRGDEADYYCAAWNGRLSAFVFGSGTKLTVLGQPKSSPSVTLFPPSSEELETNKATLVCTITDFYPGVVTVDWKVDGTPVTQGMETTQPSKQSNNKYMASSYLTLTARAWERHSSYSCQVTHEGHTVEKSLSRADCS |
|  | 250 nM | 0.25 nM | chimeric E4NG (antibody, mouse IgG2b, domain: constant region; Human E4 variable regions on mouse IgG2b/lambda-1 constant regions; also called chimeric non-glycosylated (NG) E4; mE4; not shown: mouse IgG2b heavy chain constant region, UniProtKB P01867) heavy: QVQLEESGPGLVRPSETLSLSCTVSGFPMSESYFWGWIRQSPGKGLEWLGSVIHTGTTYYRPSLESRLTIAMDPSKNQVSLSLTSVTVADSAMYYCVRIRGGSSNWLDPWGPGIVVTASS light: QSVWTQPPSVSAAPGQKVTISCSGDDSILRSAFVSWYQQVPGSAPKLVIFDDRQRPSGIPARFSGSNSGTTATLDIAGLQRGDEADYYCAAWNGRLSAFVFGSGTKLTVLGQPKSSPSVTLFPPSSEELETNKATLVCTITDFYPGVVTVDWKVDGTPVTQGMETTQPSKQSNNKYMASSYLTLTARAWERHSSYSCQVTHEGHTVEKSLSRADCS |
